These results are taken from doi:10.1101/2021.04.18.440338.

Experiment [1] concerns the target Rabbit skeletal muscle actin (RMA), as filaments (rabbit) (UniProt P68135). The experiment can be described thus: single-molecule microfluidics-assisted TIRF microscopy.
In experiment [2] the target is GST-549-SNAP-N-IQGAP1 (GST-SNAP-N-IQGAP1-6His, 1-522) (UniProt P46940). The experiment can be described thus: single-molecule step photobleaching.
For experiment [3], the target named is Rabbit skeletal muscle actin (RMA), as filaments (rabbit) (UniProt P68135).

In general, koff refers to a measure of how fast the partners let go of each other. A high value points to fast dissociation. What is called stoichiometry N is a count of units in the complex or per binding partner. Take “GST-549-SNAP-N-IQGAP1 (GST-SNAP-N-IQGAP1-6His, 1-522) (from UniProt P46940 1-522) (domain or fragment)”: in experiment [1], the average dwell time on filament sides came to 6.8 min and the koff was found to be 0.0025 s⁻¹. In experiment [2], this substance gave a stoichiometry N of 2.

Regarding “6His-N-IQGAP1 (1-522) (from UniProt P46940 1-522) (domain or fragment)”, in experiment [3], the barbed end depolymerization rate in mf-TIRF: IC50 of N-IQGAP1 is 0.3 nM.
